Measurements as given in US20240018265A1 (FRIEDRICH MIESCHER INSTITUTE FOR BIOMEDICAL RESEARCH, published 2024).

Columns and labels:
[1] = target: T1, Purified His-tagged human HDAC6 ZnF domain (1108-1215) (human, UniProt Q9UBN7 1108-1215); assay: pull-down with anti-Flag agarose beads from a mix of His-ZnF (1108-1215), Flag-DARPin and mono-ubiquitin; immunoblot with anti-His, anti-ubiquitin and anti-Flag
T1 construct: range 1108-1215; also called ZnF-UBP; His-HDAC6 ZnF (1108-1215); not shown: His tag from vector pOPINF
T1 sequence (looked up): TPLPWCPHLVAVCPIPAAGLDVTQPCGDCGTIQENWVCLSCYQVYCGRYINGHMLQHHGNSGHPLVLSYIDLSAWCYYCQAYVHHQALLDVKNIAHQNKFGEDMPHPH
Excerpt: (§1) [0013] (A) Schematic of HDAC6, showing the catalytic domains (CD1, CD2) and the zinc finger domain (ZnF) region that was expressed (amino acids 1108 to 1215) and used to identify binders. Generic nanobody and DARPin structures (PDB:1I3V and PDB:2QJY, respectively) are shown below. […] [0014] […] PD, pull-down; FT, flow-through. [0015] […] A plasmid expressing mRuby was included in all transfections as a control for transfection efficiency (red signal). Scale bar presents […]. [0016] […] [0017] […] Immunoprecipitated material (from D above) was analysed by mass spectrometry and enriched proteins are annotated.

[2] = target: T2, endogenous HDAC6 (A549 cells) (human, UniProt Q9UBN7 1-1215); assay: GFP-trap immunoprecipitation of GFP-DARPin F10 against control GFP-DARPin E3_5 from A549 cells, mass spectrometry, volcano plot
T2 construct: Endogenous intracellular protein, not a recombinant construct; also called histone deacetylase 6
T2 sequence (looked up): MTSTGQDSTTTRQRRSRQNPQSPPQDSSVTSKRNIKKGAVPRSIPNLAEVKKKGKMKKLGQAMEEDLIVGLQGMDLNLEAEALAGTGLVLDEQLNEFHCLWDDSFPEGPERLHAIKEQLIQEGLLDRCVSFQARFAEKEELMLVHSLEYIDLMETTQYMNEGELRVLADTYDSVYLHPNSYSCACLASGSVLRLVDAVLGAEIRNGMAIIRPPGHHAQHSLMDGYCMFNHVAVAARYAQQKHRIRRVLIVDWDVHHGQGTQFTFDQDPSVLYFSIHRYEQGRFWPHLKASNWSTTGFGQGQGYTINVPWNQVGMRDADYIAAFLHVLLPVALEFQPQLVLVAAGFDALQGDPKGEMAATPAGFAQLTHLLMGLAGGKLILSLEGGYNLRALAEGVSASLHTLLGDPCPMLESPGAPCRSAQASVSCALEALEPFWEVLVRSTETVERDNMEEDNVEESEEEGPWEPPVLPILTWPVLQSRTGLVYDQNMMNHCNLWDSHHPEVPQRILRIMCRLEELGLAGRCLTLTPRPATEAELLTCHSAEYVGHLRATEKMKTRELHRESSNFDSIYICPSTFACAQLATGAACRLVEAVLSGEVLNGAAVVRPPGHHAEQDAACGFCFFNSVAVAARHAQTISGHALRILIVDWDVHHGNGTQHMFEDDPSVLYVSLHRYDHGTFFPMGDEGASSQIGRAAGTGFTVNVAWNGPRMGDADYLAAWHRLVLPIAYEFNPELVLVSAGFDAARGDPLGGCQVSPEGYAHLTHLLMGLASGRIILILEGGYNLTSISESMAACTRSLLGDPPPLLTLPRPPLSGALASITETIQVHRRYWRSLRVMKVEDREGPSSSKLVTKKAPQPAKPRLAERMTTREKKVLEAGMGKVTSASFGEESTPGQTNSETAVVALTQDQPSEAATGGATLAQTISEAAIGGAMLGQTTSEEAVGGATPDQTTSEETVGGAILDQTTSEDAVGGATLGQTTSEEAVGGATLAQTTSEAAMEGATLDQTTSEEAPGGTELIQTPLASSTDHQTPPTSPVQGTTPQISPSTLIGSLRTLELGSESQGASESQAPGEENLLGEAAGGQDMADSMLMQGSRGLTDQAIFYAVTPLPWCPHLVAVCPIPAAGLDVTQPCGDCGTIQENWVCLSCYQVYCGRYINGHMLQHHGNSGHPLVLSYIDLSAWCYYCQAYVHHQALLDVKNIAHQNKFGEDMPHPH
Excerpt: as §1

GFP(10)-ubiquitin = target: T3, GFP(10)-ubiquitin (UniProt P0CG48 1-76); assay: split-GFP assay in 293T cells (specificity control)
T3 construct: Expressed in 293T cells; not shown: GFP beta strand 10 and any linker

B1: Flag-tagged DARPin F10 (F10 with histidine and detection tags) (designed binder)
chain: MRGSHHHHHHHHGSDLGKKLLEAARAGQDDEVRILMANGADVNANDRNGVTPLHLAADKGHLEIVEVLLKTGADVNAIDIMGATPLHLAAAHGHLEIVEVLLKAGADVNAMDHKGFTPLHLAAWRGHLEIVEVLLKHGADVNAQDKFGKTPFDLAIDNGNEDIAEVLQKAAKLNDYKDDDDK
[1]
  binding result: binds

B2: GFP-DARPin F10 fusion protein (designed binder)
chain: DLGKKLLEAARAGQDDEVRILMANGADVNANDRNGVTPLHLAADKGHLEIVEVLLKTGADVNAIDIMGATPLHLAAAHGHLEIVEVLLKAGADVNAMDHKGFTPLHLAAWRGHLEIVEVLLKHGADVNAQDKFGKTPFDLAIDNGNEDIAEVLQKAA
notes: Transiently expressed in A549 cells from pcDNA3.1-GFP-DARPin F10; not shown: GFP and any linker
[2]
  binding result: binds

B3: GFP(11)-HDAC6 ZnF (1108-1215) W1182A mutant (other, human, UniProt Q9UBN7 1108-1215, looked up)
chain: TPLPWCPHLVAVCPIPAAGLDVTQPCGDCGTIQENWVCLSCYQVYCGRYINGHMLQHHGNSGHPLVLSYIDLSAACYYCQAYVHHQALLDVKNIAHQNKFGEDMPHPH
notes: range 1108-1215; Specificity control in the split-GFP assay; also called ZnFm; 1182 mutant; not shown: GFP beta strand 11 and any linker
GFP(10)-ubiquitin
  binding result: no binding
